Data as given in US20220135679A1 (GREEN CROSS, published 2022).

Molecular target: T1, recombinant human GPNMB (human, UniProt Q14956 23-498)
T1 construct: also called GPNMB purified from HEK293 cells; GPNMB antigen
T1 sequence: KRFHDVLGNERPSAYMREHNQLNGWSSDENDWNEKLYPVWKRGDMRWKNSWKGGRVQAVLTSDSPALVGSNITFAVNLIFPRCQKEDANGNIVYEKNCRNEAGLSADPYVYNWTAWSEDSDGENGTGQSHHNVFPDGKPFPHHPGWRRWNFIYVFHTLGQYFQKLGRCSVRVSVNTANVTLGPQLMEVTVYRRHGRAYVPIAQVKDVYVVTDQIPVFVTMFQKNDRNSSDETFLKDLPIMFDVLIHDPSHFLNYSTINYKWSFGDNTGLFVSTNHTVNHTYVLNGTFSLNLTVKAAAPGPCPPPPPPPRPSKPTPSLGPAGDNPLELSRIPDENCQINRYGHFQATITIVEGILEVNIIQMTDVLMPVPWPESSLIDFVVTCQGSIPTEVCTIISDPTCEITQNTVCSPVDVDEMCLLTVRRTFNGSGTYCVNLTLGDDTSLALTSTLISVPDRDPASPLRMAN
Experiment: SPR, Biacore T-200; GPNMB amine-coupled on CM5 chip, bispecific antibody as analyte at 0.078 to 5 nM
Experimental: Quantitative binding capacity (affinity) of the purified bispecific antibody to recombinant human GPNMB was measured using Biacore T-200 (GE Healthcare, USA) that is a biosensor. GPNMB purified from HEK293 cells was fixed on a CM5 chip (GE Healthcare) using an amine-carboxyl reaction until 200 Rmax was obtained. Next, the GPNMB/CD3 bispecific antibody, which was serially diluted in HBS-EP buffer (10 mM HEPES, pH 7.4, 150 mM NaCl, 3 mM EDTA, 0.005% Surfactant P20), was allowed to bind thereto in a concentration range of 0.078 nM to 5 nM for 120 seconds, and flowed at a flow rate of 30 μL/min for 1800 seconds so that dissociation was achieved. Dissociation of the antibody bound to GPNMB was induced by flowing 10 mM glycine-HCl (pH 1.5) for 30 seconds at a flow rate of 30 μL/min (Table 2). The affinity was obtained as kinetic rate constants (Kₒₙ and Koff) and equilibrium dissociation constant (KD) using Biacore T-200 Evaluation Software (Table 3).

B1: GPNMB (SEQ ID NO: 35)/A15 (SEQ ID NO: 36) bispecific antibody (bispecific antibody, human IgG1, lambda, L234A L235A)
chain 1: not shown
chain 2: QAVVTQEPSLTVSPGGTVTLTCRSSTGAVTTSNYANWVQQKPGQAPRGLIGGTNKRAPWTPARFSGSLLGGKAALTLSGAQPEDEAEYYCALWYSNLWVFGGGTKLTVLGQPKANPTVTLFPPSSEELQANKATLVCLISDFYPGAVTVAWKADGSPVKAGVETTKPSKQSNNKYAASSYLSLTPEQWKSHRSYSCQVTHEGSTVEKTVAPTECSGGGSGGGSEGGGSEGGGSEGGGSEGGGSGGGSGEVQLVESGGGLVQPGGSLKLSCAASGFTFNTYAMNWVRQASGKGLEWVGRIRSKYNNYATYYADSVKDRFTISRDDSKNTAYLQMNSLKTEDTAVYYCVRHGNFGNSYVSWFAYWGQGTLVTVSSASTKGPSVFPLAPSSKSTSGGTAALGCLVKDYFPEPVTVSWNSGALTSGVHTFPAVLQSSGLYSLSSVVTVPSSSLGTQTYICNVNHKPSNTKVDKKVEPKSCDKTHTCPPCPAPEAAGGPSVFLFPPKPKDTLMISRTPEVTCVVVDVSHEDPEVKFNWYVDGVEVHNAKTKPREEQYNSTYRVVSVLTVLHQDWLNGKEYKCKVSNKALPAPIEKTISKAKGQPREPRVYTLPPCRDELTKNQVSLTCLVKGFYPSDIAVEWESNGQPENNYKTTPPVLVSDGSFTLYSKLTVDKSRWQQGNVFSCSVMHEALHNHYTQKSLSLSPG
notes: Expressed in Expi293F cells, then purified by Protein A and size exclusion; also called anti-GPNMB/anti-CD3 bispecific antibody; GPNMB/CD3 bispecific antibody
  Kd: 1.1 nM
